Results reported in patent US20060223116.

Key:
[1] = test system: T1, truncated GST-fusion T-bet protein, C-terminal fragment
T1 sequence (Q9UL17 whole entry, species assumed, looked up): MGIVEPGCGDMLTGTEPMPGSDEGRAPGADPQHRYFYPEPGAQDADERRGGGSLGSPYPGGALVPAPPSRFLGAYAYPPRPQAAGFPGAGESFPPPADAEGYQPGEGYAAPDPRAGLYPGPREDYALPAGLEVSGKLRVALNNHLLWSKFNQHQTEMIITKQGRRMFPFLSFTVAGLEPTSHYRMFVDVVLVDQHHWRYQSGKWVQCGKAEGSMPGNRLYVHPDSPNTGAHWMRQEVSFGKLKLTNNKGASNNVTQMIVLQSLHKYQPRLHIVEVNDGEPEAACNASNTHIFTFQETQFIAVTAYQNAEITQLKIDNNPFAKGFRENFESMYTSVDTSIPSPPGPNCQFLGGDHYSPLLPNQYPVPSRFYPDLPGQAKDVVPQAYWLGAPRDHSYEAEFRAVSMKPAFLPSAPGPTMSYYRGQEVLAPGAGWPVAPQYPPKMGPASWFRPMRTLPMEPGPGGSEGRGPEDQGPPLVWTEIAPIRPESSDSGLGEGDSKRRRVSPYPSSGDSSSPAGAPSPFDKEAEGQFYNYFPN

[2] = test system: T2, truncated GST-fusion T-bet protein, N-terminal fragment
T2 sequence (Q9UL17 whole entry, species assumed, looked up): T1 sequence (Q9UL17 whole entry, species assumed, looked up)

Q: What does the source list for “RLK-MYC (resting lymphocyte kinase, MYC-tagged)”?
A: in vitro kinase assay (32P-ATP, autoradiography) [1]: both the N and C terminal fragments but not the DNA binding domain, could be phosphorylated by the Tec kinases, ITK and RLK; in vitro kinase assay (32P-ATP, autoradiography) [2]: both the N and C terminal fragments but not the DNA binding domain, could be phosphorylated by the Tec kinases, ITK and RLK
